Conditions: Escherichia coli; pH 6; 25 °C; Thermal; DSC; Sodium phosphate/Sodium sulfate 10 mM/10 mM/; reversible: yes; whole UniProt chain shown

B1: Regulatory protein rop wild type, P03051 (protein)
chain: MTKQEKTALNMARFIRSQTLTLLEKLNELDADEQADICESLHDHADELYRSCLARFGDDGENL
  heat capacity change of unfolding: 2.46 kcal/mol/K
  unfolding free energy: 17.1 kcal/mol

Reference: FireProtDB (doi:10.1002/prot.340230110)
